Experimental data: patent publication US20210122788A1 (published 2021)
Like-named read-outs stand apart in the source and are kept apart here.

Key:
Test in all cases: FACS binding to EL4 cells
[1] = target: T1, human BTLA, wild-type, on cells (human, UniProt Q7Z6A9 31-289)
human CD160 on cells [2] = target: T2, human CD160 on cells (human, UniProt O95971 25-159)
T2 chain: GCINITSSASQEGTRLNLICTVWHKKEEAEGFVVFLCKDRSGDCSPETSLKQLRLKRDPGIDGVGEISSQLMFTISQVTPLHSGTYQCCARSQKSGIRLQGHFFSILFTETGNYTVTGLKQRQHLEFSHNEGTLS

[3] = target: T1, human BTLA, wild-type, on cells; remark: listed apart in the source
human CD160 on cells [4] = target: T2, human CD160 on cells

B1: human HVEM Fc (Fc fusion)
chain: LPSCKEDEYPVGSECCPKCSPGYRVKEACGELTGTVCEPCPPGTYIAHLNGLSKCLQCQMCDPAMGLRASRNCSRTENAVCGCSPGHFCIVQDGDHCAACRAYATSSPGQRVQKGGTESQDTLCQNCPPGTFSPNGTLEECQHQTKCSWLVTKAGAGTSSSHWV
Q: Which EC50 [1] does the source give for B1 here?
A: 8.7 µg/mL

Q: What about the EC50 (human CD160 on cells [2]) of the same binder?
A: 5.1 µg/mL

Q: And the EC50 [3]?
A: 8.7 µg/mL

Q: And the EC50 (human CD160 on cells [4])?
A: 5.1 µg/mL
